# Substitutions are numbered along the chain they refer to.
# B1: C. elegans Gαq/s9 (other)
# chain: MACCLSEEAREQKRINQEIEKQLQRDKRNARRELKLLLLGTGESGKSTFIKQMRIIHGQGYSEEDKRAHIRLVYQNVFMAIQSMIRAMDTLDIKFGNESEELQEKAAVVREVDFESVTSFEEPYVSYIKELWEDSGIQECYDRRREYQLTDSAKYYLSDLRRLAVPDYLPTEQDILRVRVPTTGIIEYPFDLEQIIFRMVDVGGQRSERRKWIHCFENVTSIMFLVALSEYDQVLVECDNENRMEESKALFRTIITYPWFTNSSVILFLNKKDLLEEKILYSHLADYFPEYDGPPRDPIAAREFILKMFVDLNPDADKIIYSHFTCATDTENIRFVFAAVKDTILQMHLRQYELL
# B2: Human Gαq/s5 (other)
# chain: MTLESIMACCLSEEAKEARRINDEIERQLRRDKRDARRELKLLLLGTGESGKSTFIKQMRIIHGSGYSDEDKRGFTKLVYQNIFTAMQAMIRAMDTLKIPYKYEHNKAHAQLVREVDVEKVSAFENPYVDAIKSLWNDPGIQECYDRRREYQLSDSTKYYLNDLDRVADPSYLPTQQDVLRVRVPTTGIIEYPFDLQSVIFRMVDVGGQRSERRKWIHCFENVTSIMFLVALSEYDQVLVESDNENRMEESKALFRTIITYPWFQNSSVILFLNKKDLLEEKIMYSHLVDYFPEYDGPQRDAQAAREFILKMFVDLNPDSDKIIYSHFTCATDTENIRFVFAAVKDTILQLNLKQYELL
# B3: Human Gαq/s9 (other)
# chain: B2 chain with L351M, N352H, K354R
# B4: C. elegans Gαq/s21 (other)
# chain: B1 chain with F335R, A338N, A339D, V340C, K341R, T343I, L345Q, Q346R
# B5: Human Gαq/z5 (identical to Accession number L76256) (other)
# chain: B2 chain with S171A, Q355Y, Y356I, E357G, L359C
# B6: D. melanogaster Gαq/z5 (other)
# chain: MECCLSEEAKEQKRINQEIEKQLRRDKRDARRELKLLLLGTGESGKSTFIKQMRIIHGSGYSDEDKRGYIKLVFQNIFMAMQSMIKAMDMLKISYGQGEHSELADLVMSIDYETVTTFEDPYLNAIKTLWDDAGIQECYDRRREYQLTDSAKYYLKDLDRVAQPAYLPTEQDILRVRVPTTGIIEYPFDLEEIRFRMVDVGGQRSERRKWIHCFENVTSIIFLVALSEYDQILFESDNENRMEESKALFRTIITYPWFQNSSVILFLNKKDLLEEKIMYSHLVDYFPEYDGPQRDAITAREFILRMFVDLNPDSEKIIYSHFTCATDTENIRFVFAAVKDTILQSNLKYIGLC
# Target: T1, human dopamine D1 receptor (human, UniProt P21728 1-446)
# T1 sequence (P21728 whole entry): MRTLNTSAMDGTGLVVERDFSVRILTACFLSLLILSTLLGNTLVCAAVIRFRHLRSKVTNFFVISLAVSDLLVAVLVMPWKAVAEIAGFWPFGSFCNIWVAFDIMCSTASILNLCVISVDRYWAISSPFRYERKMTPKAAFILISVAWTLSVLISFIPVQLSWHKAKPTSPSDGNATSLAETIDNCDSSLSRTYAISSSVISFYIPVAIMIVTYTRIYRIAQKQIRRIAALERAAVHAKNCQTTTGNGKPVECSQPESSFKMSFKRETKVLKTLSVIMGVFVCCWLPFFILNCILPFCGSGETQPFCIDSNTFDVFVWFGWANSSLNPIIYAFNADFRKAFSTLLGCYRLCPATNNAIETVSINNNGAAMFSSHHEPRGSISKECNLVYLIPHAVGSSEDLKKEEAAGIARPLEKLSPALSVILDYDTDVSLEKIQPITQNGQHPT
# Experiment: cell-based or functional assay
row,Binder,"max Ca2+ signal, COS-7, FLIPR; agonist dopamine; fold over hGαq/s9 [fold]"
1,B1,1.5

# Target: human GLP-1 receptor (human, UniProt P43220 24-463)
# Experiment: cell-based or functional assay
row,Binder,"max Ca2+ signal, COS-7, FLIPR; agonist GLP-1 [fluorescence units]"
1,B2,189
2,B3,4200
3,B1,2460
4,B4,3120

# Target: human 5HT7 receptor (human, UniProt P34969 1-479)
# Sequence (P34969 whole entry): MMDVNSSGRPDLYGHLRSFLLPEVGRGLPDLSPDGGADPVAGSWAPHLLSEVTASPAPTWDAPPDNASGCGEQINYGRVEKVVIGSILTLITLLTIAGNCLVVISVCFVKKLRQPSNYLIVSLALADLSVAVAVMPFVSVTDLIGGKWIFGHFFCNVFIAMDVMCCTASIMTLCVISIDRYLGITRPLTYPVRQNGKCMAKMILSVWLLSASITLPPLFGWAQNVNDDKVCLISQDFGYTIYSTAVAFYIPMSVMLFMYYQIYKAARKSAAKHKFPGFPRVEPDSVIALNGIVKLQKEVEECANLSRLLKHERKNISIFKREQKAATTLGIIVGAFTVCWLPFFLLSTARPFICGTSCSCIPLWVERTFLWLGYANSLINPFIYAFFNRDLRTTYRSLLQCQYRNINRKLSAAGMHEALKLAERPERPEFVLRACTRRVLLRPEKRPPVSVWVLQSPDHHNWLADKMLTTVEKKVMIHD
# Experiment: cell-based or functional assay
row,Binder,"max Ca2+ signal, COS-7, FLIPR; agonist 5HT [fluorescence units]"
1,B2,0
2,B3,0
3,B1,387
4,B4,206

# Target: human dopamine D5 receptor (human, UniProt P21918 1-477)
# Sequence (P21918 whole entry): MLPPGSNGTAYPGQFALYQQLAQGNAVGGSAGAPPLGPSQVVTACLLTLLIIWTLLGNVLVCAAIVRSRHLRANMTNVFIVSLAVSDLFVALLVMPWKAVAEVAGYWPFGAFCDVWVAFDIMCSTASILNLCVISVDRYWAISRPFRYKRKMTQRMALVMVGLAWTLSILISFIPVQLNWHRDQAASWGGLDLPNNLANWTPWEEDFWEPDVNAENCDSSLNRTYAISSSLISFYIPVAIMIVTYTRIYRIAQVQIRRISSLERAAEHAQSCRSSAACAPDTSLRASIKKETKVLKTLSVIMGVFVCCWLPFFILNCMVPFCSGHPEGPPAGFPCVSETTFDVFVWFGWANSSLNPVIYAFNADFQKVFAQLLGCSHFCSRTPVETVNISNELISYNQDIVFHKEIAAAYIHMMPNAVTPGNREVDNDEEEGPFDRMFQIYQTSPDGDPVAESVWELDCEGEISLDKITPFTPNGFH
# Experiment: cell-based or functional assay
row,Binder,"max Ca2+ signal, COS-7, FLIPR; agonist DA [fluorescence units]"
1,B2,0
2,B3,745
3,B1,1870
4,B4,3380

# Target: human 5HT4 receptor (human, UniProt Q13639 1-388)
# Sequence (Q13639 whole entry): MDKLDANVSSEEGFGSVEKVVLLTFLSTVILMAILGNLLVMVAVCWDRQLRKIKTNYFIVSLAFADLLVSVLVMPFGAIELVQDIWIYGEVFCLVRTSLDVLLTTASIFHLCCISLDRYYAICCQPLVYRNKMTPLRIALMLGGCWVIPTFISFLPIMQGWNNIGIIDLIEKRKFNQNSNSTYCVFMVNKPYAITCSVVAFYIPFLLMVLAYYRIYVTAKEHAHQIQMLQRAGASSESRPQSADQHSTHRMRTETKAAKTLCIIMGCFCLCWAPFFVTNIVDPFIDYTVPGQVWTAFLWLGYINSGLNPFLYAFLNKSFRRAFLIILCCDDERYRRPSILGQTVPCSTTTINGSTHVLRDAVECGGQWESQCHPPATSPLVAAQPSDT
# Experiment: cell-based or functional assay
row,Binder,"max Ca2+ signal, COS-7, FLIPR; agonist 5HT [fluorescence units]"
1,B2,1710
2,B3,2310
3,B1,1700
4,B4,1730

# Target: human 5HT6 receptor (human, UniProt P50406 1-440)
# Sequence (P50406 whole entry): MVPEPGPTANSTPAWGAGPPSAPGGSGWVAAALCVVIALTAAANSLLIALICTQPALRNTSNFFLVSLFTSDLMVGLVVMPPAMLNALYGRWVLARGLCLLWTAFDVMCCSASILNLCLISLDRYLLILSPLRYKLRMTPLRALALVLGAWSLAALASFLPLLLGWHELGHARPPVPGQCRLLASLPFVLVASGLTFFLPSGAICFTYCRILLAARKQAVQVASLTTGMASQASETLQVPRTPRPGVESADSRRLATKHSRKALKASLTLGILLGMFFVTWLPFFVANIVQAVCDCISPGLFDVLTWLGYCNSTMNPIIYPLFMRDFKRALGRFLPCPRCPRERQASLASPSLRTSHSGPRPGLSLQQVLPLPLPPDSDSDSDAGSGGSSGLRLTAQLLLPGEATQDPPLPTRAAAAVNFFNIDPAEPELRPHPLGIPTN
# Experiment: cell-based or functional assay
row,Binder,"max Ca2+ signal, COS-7, FLIPR; agonist 5HT [fluorescence units]"
1,B2,98
2,B3,999
3,B1,1640
4,B4,1010

# Target: human β2 adrenergic receptor (human, UniProt P07550 1-413)
# Experiment: cell-based or functional assay
row,Binder,"max Ca2+ signal, COS-7, FLIPR; agonist NE [fluorescence units]"
1,B2,43
2,B3,1440
3,B1,3110
4,B4,3510

# Target: T1, human dopamine D1 receptor
# Experiment: cell-based or functional assay
# Remark: another data set of the same source
row,Binder,"max Ca2+ signal, COS-7, FLIPR; agonist DA [fluorescence units]"
1,B2,0
2,B3,5690
3,B1,8690
4,B4,9430

# Target: T1, human dopamine D1 receptor
# Experiment: cell-based or functional assay
# Remark: another data set of the same source
row,Binder,"max Ca2+ signal, COS-7, FLIPR; 100 µM dopamine [fluorescence units]"
1,B5,0
2,B6,2150

# Source: patent US7067277 (H LUNDBECK A S, dated 2006)
